T1: miR2-FL-WT-FLAG (mouse, UniProt Q80WQ6 1-827)
T1 construct: on MEF-DKO cells
T1 sequence: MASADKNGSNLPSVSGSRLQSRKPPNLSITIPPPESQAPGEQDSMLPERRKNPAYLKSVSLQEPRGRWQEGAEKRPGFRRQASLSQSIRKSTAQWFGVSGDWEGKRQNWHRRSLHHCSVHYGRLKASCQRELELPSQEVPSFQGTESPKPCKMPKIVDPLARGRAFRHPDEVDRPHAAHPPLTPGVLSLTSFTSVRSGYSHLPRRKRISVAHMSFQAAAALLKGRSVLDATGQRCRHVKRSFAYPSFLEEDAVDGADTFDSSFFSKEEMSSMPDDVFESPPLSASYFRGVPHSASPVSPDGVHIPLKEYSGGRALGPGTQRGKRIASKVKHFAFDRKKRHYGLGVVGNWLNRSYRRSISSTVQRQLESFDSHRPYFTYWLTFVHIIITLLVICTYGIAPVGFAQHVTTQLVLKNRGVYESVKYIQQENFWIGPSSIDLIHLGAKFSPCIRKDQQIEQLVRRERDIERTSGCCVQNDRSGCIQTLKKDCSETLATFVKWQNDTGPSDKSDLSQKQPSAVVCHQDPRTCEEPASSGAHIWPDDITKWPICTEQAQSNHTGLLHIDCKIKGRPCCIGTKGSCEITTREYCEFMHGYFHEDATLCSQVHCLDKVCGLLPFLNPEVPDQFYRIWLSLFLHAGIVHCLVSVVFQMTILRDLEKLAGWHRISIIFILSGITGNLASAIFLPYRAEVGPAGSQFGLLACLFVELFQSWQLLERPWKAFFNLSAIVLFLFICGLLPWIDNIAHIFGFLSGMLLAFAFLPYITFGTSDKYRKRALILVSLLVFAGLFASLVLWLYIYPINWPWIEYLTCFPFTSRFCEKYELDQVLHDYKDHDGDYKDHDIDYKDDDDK

T2: human iRhom2, endogenously expressed (human, UniProt Q6PJF5 1-856)
T2 sequence: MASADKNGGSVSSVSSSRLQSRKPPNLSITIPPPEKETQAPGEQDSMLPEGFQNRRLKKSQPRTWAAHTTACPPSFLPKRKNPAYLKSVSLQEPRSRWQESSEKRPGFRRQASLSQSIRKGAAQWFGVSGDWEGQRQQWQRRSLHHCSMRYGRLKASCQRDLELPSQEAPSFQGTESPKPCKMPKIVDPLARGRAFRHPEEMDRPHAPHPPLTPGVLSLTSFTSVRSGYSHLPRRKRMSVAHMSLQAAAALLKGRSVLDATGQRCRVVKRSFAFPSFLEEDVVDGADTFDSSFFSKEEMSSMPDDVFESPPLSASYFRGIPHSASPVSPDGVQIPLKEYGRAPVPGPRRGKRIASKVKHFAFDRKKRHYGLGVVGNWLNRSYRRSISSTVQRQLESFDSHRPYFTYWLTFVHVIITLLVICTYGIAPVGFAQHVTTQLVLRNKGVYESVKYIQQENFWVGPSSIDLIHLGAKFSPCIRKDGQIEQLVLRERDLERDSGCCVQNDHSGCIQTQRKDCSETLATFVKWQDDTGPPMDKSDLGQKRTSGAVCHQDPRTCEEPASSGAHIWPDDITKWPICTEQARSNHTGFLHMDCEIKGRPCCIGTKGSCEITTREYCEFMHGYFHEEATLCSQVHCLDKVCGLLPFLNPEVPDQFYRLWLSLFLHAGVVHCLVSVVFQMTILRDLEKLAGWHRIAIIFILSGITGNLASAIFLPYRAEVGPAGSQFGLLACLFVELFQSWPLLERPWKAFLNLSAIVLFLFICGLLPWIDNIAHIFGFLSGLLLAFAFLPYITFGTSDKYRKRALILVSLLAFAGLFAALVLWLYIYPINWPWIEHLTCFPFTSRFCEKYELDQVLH


Legend:
[1] = target: T1, miR2-FL-WT-FLAG; assay: FACS, MEF-DKO-miR2-FL-WT-FLAG cells
Description: In brief, immortalized MEF-DKO-EV control cells, MEF-DKO-hiR2-FL-WT-FLAG cells and MEF-DKO-miR2-FL-WT-FLAG cells were harvested with 10 mM EDTA in PBS, washed and resuspended in FACS buffer (PBS, 3% FBS, 0.05% sodium azide), and seeded in Nunc U-bottom 96-well plates (Thermo Fisher Scientific, USA) at approximately 3×10⁵ cells per well. To pellet cells and remove supernatants, the plates were centrifuged at 1,500 rpm and 4° C. for 3 minutes. For primary staining, cells were resuspended in 100 μl per well of either FACS buffer alone (controls), mouse monoclonal anti-FLAG IgG (Sigma-Aldrich, USA) at 3 μg/ml FACS buffer or the antibodies of the invention also at 3 μg/ml FACS buffer and incubated on ice for 1 hour. Afterwards, plates were centrifuged at 1,500 rpm and 4° C. for 3 minutes and washed twice with 200 μl per well of FACS buffer. For secondary staining, cells were spun down and resuspended in 100 μl per well of PE-conjugated goat anti-mouse IgG F(ab′)2 detection fragment (Dianova, Germany) diluted 1:100 in FACS buffer. Protected from light, the cell suspensions were incubated on ice for 1 hour. Plates were then centrifuged at 1,500 rpm and 4° C. for 3 minutes and washed three times with 200 μl per well of FACS buffer. Finally, cells were resuspended in 150 μl per well of FACS buffer and analyzed using a BD Accuri™ C6 Plus flow cytometer (Becton Dickinson, Germany).

[2] = target: T2, human iRhom2, endogenously expressed; assay: cell-based or functional assay

Binder	binding result [1]	LPS-induced TNFα release from PBMCs of healthy donors, percent inhibition, 1 µg/ml [2] [%]	LPS-induced TNFα release from THP-1 cells, percent inhibition, 10 µg/ml, hybridoma-purified [2] [%]	LPS-induced TNFα release from THP-1 cells, percent inhibition, recombinant antibody [2] [%]	LPS-induced TNFα release from human macrophages of healthy donors, percent inhibition, 10 µg/ml [2] [%]	PMA-induced HB-EGF release from PBMCs of healthy donors, percent inhibition, 1 µg/ml [2] [%]	PMA-induced HB-EGF release from THP-1 cells, percent inhibition, 3 µg/ml [2] [%]	PMA-induced HB-EGF release from U-937 cells, percent inhibition [2] [%]	PMA-induced IL-6R release from PBMCs of healthy donors, percent inhibition, 1 µg/ml [2] [%]	PMA-induced IL-6R release from THP-1 cells, percent inhibition, 1 µg/ml [2] [%]	PMA-induced IL-6R release from U-937 cells, percent inhibition, 1 µg/ml [2] [%]	PMA-induced IL-6R release from U-937 cells, percent inhibition, 3 µg/ml [2] [%]	PMA-induced TGFα release from PC3 cells, percent inhibition, 1 µg/ml [2] [%]	PMA-induced TNFα release from U-937 cells, percent inhibition, 1 µg/ml [2] [%]	PMA-induced TNFα release from U-937 cells, percent inhibition, 3 µg/ml [2] [%]
antibody 16 (antibody, V domains shown, mouse IgG, kappa light chain; also called clone #16; purified antibody 16) VH: QVTLKESGPGILQPSQTLSLTCSFSGFSLSTFALGVGWIRQPSGRGLEWLAHIWWDDDKYYNPALKSRLTISKDTSKNHVFLKIANVDTADTATYYCARITTYYYGMDYWGQGTSVTVSS VL: DIVLSQSPATLSVTPGDSVSLFCRASQSIGNHLHWYQQESHASPRLLIKYASQSISGIPSRFSGSGSGTDFTLSINSVETEDFGMYFCQQSYNWPLTFGAGTKLELK	no binding (tested: 3 µg/ml)	81.3	65.4	70.7	85.8	71.6	71.9	99.6	84.3	72.5	77.7	77.4	13.9	91.6	91.9
antibody 5 (antibody, V domains shown, mouse IgG, kappa light chain; also called clone #5; purified antibody 5) VH: QVTLKESGPGILQPSQTLSLTCSFSGFSLSTFGMGVGWIRQPSGKGLEWLAHIWWDDEKYYNSALKSRLTISKATSKNQAFLKIANVDTADTATYYCARISNYGSNYWYFNVWGTGTTVTVSS VL: QVVLTQSPALMSASPGEKVTMTCSAGSSVSCMYWYQQKPGSSPRVLIYDTSNLASGVPARFTGSGSGTSYSLTISRMEAEDAASYYCQQWNSYPLTFGAGTKLELK	no binding (tested: 3 µg/ml)	–	69	70.5	–	–	–	–	–	64.1	67	–	–	63.6	–
antibody 22 (antibody, V domains shown, mouse IgG, kappa light chain; also called clone #22; purified antibody 22) VH: QVTLKESGPGILQPSQTLSLTCSFSGFSLSTFGMGVGWIRQPSGKGLEWLAHIWWDDEKYYNSALKSRLTISKATSKNQVFLKIANVDTADTATYYCARISNYGSNYWYFNVWGTGTTVTVSS VL: QVVLTQSPALMSASPGEKVTMTCSAGSSVSYMYWYQQKPGSSPRVLIYDTSNLASGVPARFTGSGSGTSYSLTISRMEAEDAATYYCQQWNSYPLTFGAGTKLELK	no binding (tested: 3 µg/ml)	72.8	78.8	78.4	78.8	56.5	77.7	101	79.3	67.4	74.5	79	12.7	86.1	93.1
antibody 3 (antibody, V domains shown, mouse IgG, kappa light chain; also called clone #3; purified antibody 3) VH: QVTLKESGPGILQPSQTLSLTCSFSGFSLTTFAMGIGWVRQPSGKGLEWLAHIWWDGEKYNNPVLKSRLTISKDTSKNQVFLRIANVDTPDTATYYCARISSIYYIIDNWGQGTSVTVSS VL: DIVLTQSPATLSVTPGHSVSLSCRASQSISNNLHWYQKKSHESPRLLIKYVSQSISGIPSRFSGSGSGTDFTLSINSVETEDFGMYFCQQSYNWPLTFGAGTKLELK	–	–	71.2	59.9	–	–	–	–	–	46.7	61.8	–	–	65.9	–
antibody 48 (antibody, V domains shown, mouse IgG, kappa light chain; also called clone #48; purified antibody 48) VH: QVQLQQSGTELVRPGTSVKVSCKASGYAFTNYLIEWVKQRPGQGLEWIGVINPGSGFTKYNEKFKGKATLTADKSSSTVYMHLSSLTSEDSAVYFCARGLYRAMDYWGQGTSVTVSS VL: DIQMTQSPASQSASLGESVTITCLASQTIATWLAWYQQKPGKSPQLLIYGATTLADGVPSRFSGGGSGTKFSFKISSLQAEDFVSYYCQQLYSTPYTFGGGTKLEIK	no binding (tested: 3 µg/ml)	–	–	–	–	–	–	–	–	–	–	–	–	–	–
antibody 50 (antibody, V domains shown, mouse IgG, kappa light chain; also called clone #50; purified antibody 50) VH: QVQLQQSGAELVRPGASVKVSCKASGYAFSNYLIEWVKQRPGQGLEWIGVINPGSGFTKYNEKFKGKATLTADKSSSTAYMQLSSLTSEDSAVYFCARGLYRAMDYWGQGTSVTVSS VL: DIQMTQSPASQSASLGESVTITCLASQTIGTWLAWYQQKPGKSPQLLIYAAASLADGVPSRFSGGGSGTKFSFKISSLQAEDFVNYYCQQIYSTPYTFGGGTKLEIK	no binding (tested: 3 µg/ml)	–	–	–	–	–	–	–	–	–	–	–	–	–	–
antibody 47 (antibody, V domains shown, mouse IgG, kappa light chain; also called clone #47) VH: QVQLQQSGAELVRPGTSVKVSCKASGYAFTNYLIEWVKQRPGQGLEWIGVINPGSGFTNYNEKFKGKAILNADKSSSTAYMQLISLTSEDSAVYFCARDLKRAMDHWGQGTSVTVSS VL: DIQMTQSPASQSASLGESVTITCLASQTIGTWLAWYQQKPGKSPQLLIHAATSLADGVPSRFSGSGSGTKFSFKISSLQAEDFVSYYCQQIYSSPYTFGGGTKLEIK	no binding (tested: 3 µg/ml)	–	–	–	–	–	–	–	–	–	–	–	–	–	–
antibody 51 (antibody, V domains shown, mouse IgG, kappa light chain; also called clone #51) VH: QVQLQQSGAELVKPGASVKISCKASGYTFSNYWMNWVKQRPGKGLEWIGQIYPGDGDTKYNGKFKNKATLTADKSSSTAYMQFSSLTSEDSAVYFCARGDLVFVYWGLGTLVTVSA VL: DVQITQSPSYLAVSPGETITINCRASKNIRKYLAWYQEKPGKTNKLLIYSGSTSQSGVPSRFSGSGSGTDFTLTISSLEPEDFAMYYCQQHNEYPYTFGGGTKLEIK	no binding (tested: 3 µg/ml)	–	–	–	–	–	–	–	–	–	–	–	–	–	–
